Laboratory results as given in US20220135701A1 (Genentech, published 2022).

Experiments:
Assay in all cases: SPR BIAcore T200, Ab captured, 37C
[1] = molecular target: T1, human MerTK (human, UniProt Q12866 26-499)
T1 construct: also called HuMER
T1 sequence: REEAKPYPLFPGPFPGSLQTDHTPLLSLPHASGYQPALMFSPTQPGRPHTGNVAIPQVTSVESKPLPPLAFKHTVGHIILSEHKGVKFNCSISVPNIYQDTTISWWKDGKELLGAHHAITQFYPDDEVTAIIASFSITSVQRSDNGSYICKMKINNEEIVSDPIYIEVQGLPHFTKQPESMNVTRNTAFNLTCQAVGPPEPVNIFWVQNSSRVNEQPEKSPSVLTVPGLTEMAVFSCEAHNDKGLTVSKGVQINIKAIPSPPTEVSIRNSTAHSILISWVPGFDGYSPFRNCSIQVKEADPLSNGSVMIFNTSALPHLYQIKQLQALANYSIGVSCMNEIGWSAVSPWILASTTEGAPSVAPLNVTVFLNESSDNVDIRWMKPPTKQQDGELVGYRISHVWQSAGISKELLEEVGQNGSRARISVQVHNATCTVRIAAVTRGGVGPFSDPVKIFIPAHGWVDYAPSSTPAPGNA
Protocol: (§1) Each rabbit and humanized antibody was subjected to a binding assay to determine its affinity to MerTK derived from various species.
(§2) All binding affinity determinations were obtained using Surface Plasmon Resonance (SPR) measurements from a BIAcore™-T200 instrument. Briefly, each rabbit or humanized antibody was captured to achieve approximately 100 RU (Response Units). Then, 3-fold serial dilutions of MerTK from various species (0.4 nM to 100 nM) diluted in HBS-EP buffer (0.01M HEPES pH 7.4, 0.15M NaCl, 3 mM EDTA and 0.05% v/v surfactant P20) was injected into the BIAcore™-T200 instrument at 25° C. or 37° C. with a flow rate of 30 μl/min. Association rates (kₒₙ) and dissociation rates (koff) were calculated using a simple one-to-one Langmuir binding model (BIAcore T200 evaluation software version 2.0). The equilibrium dissociation constant (KD) was calculated as the ratio koff/kₒₙ.

[2] = molecular target: T2, cynomolgus monkey MerTK (cynomolgus monkey, UniProt A0A2K5V1H9 32-505)
T2 construct: Soluble analyte in SPR; also called Cyno MerTK
T2 sequence: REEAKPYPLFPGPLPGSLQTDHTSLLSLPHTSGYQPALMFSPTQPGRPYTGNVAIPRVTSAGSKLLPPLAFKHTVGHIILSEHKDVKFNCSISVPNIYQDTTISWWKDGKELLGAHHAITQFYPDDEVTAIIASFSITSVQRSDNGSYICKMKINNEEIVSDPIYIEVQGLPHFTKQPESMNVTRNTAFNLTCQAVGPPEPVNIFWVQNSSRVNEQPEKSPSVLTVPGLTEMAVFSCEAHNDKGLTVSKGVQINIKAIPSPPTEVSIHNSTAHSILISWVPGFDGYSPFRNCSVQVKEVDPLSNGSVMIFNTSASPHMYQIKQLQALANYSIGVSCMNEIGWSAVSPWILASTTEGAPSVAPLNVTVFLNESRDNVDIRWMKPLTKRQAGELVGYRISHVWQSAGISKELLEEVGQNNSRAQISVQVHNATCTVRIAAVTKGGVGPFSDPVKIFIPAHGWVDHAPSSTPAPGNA
Protocol: as §1, §2

[3] = molecular target: T3, mouse MerTK (mouse, UniProt Q60805 23-496)
T3 construct: also called MuMER
T3 sequence (looked up): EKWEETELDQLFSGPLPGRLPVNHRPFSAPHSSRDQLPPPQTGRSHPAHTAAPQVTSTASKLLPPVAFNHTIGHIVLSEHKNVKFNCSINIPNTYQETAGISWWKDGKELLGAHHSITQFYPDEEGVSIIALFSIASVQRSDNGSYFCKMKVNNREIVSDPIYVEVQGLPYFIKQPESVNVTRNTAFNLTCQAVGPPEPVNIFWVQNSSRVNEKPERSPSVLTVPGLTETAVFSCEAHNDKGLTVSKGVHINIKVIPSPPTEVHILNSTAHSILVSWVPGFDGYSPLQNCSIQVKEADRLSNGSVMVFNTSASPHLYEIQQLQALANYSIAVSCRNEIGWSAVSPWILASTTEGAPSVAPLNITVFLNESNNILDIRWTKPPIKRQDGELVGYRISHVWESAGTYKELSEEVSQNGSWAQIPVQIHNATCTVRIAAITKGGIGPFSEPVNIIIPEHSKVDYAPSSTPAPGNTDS
Protocol: as §1, §2

Kd [1]: 4.9 nM | Kd [2]: 2.1 nM | Kd [3]: 1.4 nM
B1: h10F7.v16 (antibody, V domains shown)
VH: EVQLVESGGGLVQPGGSLRLSCAVSGFSLSGYAMSWVRQAPGKGLEYIGVISSSGSSYYPSWAKGRFTISKDNSKNTLYLQMGSLRAEDMAVYYCARVQFYVGYAVYGYGIIDRLDLWGQGTLVTVSS
VL: DIVLTQSPDSLAVSLGERATINCQSSKSVYNNNWLSWYQQKPGQPPKLLIYRASTLESGVPDRFSGSGSGTDFTLTISSLQAEDVAVYFCAGGYSSSSSANAFGGGTKVEIK
notes: Humanized, human IgG1; also called 10F7 Fully Humanized; 10F7 Humanized polished mAb
